Patent US20260125649A1, “MEDIUM COMPOSITION AND METHOD FOR CULTURING MESENCHYMAL STEM CELLS” (ACADEMIA SINICA, priority 2018, published 2026)
“Also recorded” adds a separate entry of the source.

Key:
[1] = system: cyclin A2, cyclin D1, cyclin D2, cyclin D3, cyclin E1, CDK4, CDK9, Oct4, Sox2, c-Myc, Lin28; experiment: Western blotting of cell cycle regulators and pluripotency factors in MSCs; type: cell-based, human; settings: EpEX 3 μg/mL
Protocol: The proliferation of MSCs was examined by measuring doubling time. MSCs were treated with EpEX (3 μg/mL) for 24 and 48 h. Cell number was counted and then doubling time was calculated. MSCs were treated with EpEX (3 μg/mL) for the indicated times. After treatment, protein expression of cell cycle regulators (cyclin D1, cyclin D2, cyclin D3, cyclin E1, CDK4 and CDK9) and pluripotency factors (Oct4, Sox2, c-Myc, and Lin28) was examined by Western blotting.
Phospho-EGFR (Tyr845) was detected by Western blotting. […] After treatment, cell cycle progression was investigated by flow cytometry with PI staining. Fraction of cells in each phase (G1, S, G2/M) of the cell cycle was evaluated. Cells that expressed EGFR shRNA or shLuc were treated with EpEX for 18 h. After treatment, cell cycle progression was investigated by flow cytometry with PI staining. Fraction of cells in each phase (G1, S, G2/M) of the cell cycle was evaluated. […]
After treatment, the protein levels of total STAT3 and phospho-STAT3 (Tyr705) were examined by Western blotting. […] Fraction of cells in each phase (G1, S, G2/M) of the cell cycle was evaluated. […] Fraction of cells in each phase (G1, S, G2/M) of the cell cycle was evaluated. […]
The expression of let-7 was detected by qPCR. […] The expression of let-7 was detected by qPCR. […]

EGFR (Tyr845) = target: T1, EGFR (Tyr845) (Homo sapiens, UniProt P00533); experiment: EGFR phosphorylation (antibody array, Western blotting); type: cell-based; settings: MSCs treated with the substance (EpEX 3 μg/mL)
T1 construct: host or cells: human primary bone marrow mesenchymal stem cells (BMMSCs)
Protocol: Phospho-EGFR (Tyr845) was detected by Western blotting. […] After treatment, cell cycle progression was investigated by flow cytometry with PI staining. Fraction of cells in each phase (G1, S, G2/M) of the cell cycle was evaluated. Cells that expressed EGFR shRNA or shLuc were treated with EpEX for 18 h. After treatment, cell cycle progression was investigated by flow cytometry with PI staining. Fraction of cells in each phase (G1, S, G2/M) of the cell cycle was evaluated. […] The protein expression of cell cycle regulators (cyclin D1, cyclin D2, cyclin E1) and pluripotency factors (Oct4, Sox2, c-Myc, Lin28) was examined by Western blotting. MSCs expressing EGFR shRNA were stimulated by EpEX. After treatment, the protein expression of cell cycle regulators (cyclin D1, cyclin E1, CDK4 and CDK9) and pluripotency factors (Oct4, in Sox2, c-Myc, and Lin 28) was examined by Western blotting. […] After treatment, the gene expression of pluripotency factors (Oct4, Sox2, c-Myc, Lin28 and EpCAM) was examined by qPCR.
The phosphorylation of EGFR (Tyr845) and STAT3 (Tyr705) were examined by Western blotting with specific antibodies.
Western blotting was performed as previously described (Takahashi et al., 2003). Cells were lysed in lysis buffer (150 mM NaCl, 50 mM Tris-HCl (pH 7.4), 1% Nonidet P-40), containing a protease inhibitor mix (Roche Applied Science). Nuclear fractions and cytoplasmic fractions were separated by the Nuclear/Cytosol Fractionation Kit according to the manufacturer's instructions (BioVision Inc., Milpitas, CA, USA). Protein samples were separated by SDS-PAGE under denaturing conditions, and transferred to a PVDF membrane (Millipore). To probe for pluripotency markers, membranes were incubated with the indicated antibodies against Oct4 (1:1000, Abcam, Cambridge, UK), Nanog (1:1000, Genetex), Lin28 (1:1000, Genetex) or Sox2 (1:1000, Genetex). The CDK and cyclin antibodies were from the CDK and Cyclin Antibody Sampler Kits (Cell Signalling Technology, #9868 and #9869 respectively), including antibodies against cylin D1, D2, E1, and CDK4, CDK9 (1:1000). […]

MSCs = experiment: Osteogenesis of MSCs by Alizarin Red S staining; type: cell-based, human
Protocol: Calcium precipitation was measured by Alizarin Red S (ARS) staining to probe the efficiency of osteogenesis. […] Quantification of osteogenesis, as measured by ARS staining, is shown for each group. MSCs were induced by osteogenetic medium and treated with EpEX at indicated doses. The gene expression of RUNX2 was examined by qPCR. […] ARS staining was performed to check the efficiency of osteogenesis. MSCs were pretreated with let-7 inhibitor and then treated with EpEX for 14 days during osteo-induction. ARS staining was performed to check the efficiency of osteogenesis. […] RUNX2 gene expression was measured by qPCR. MSCs were pretreated with let-7 inhibitor and induced by EpEX. RUNX2 gene expression was examined by qPCR. […] Upon EpEX stimulation, phosphorylation of EGFR-STAT3 signaling is induced and subsequently upregulates the level of Lin28 which inhibits let-7. When let-7 is inhibited, the transcription factor, HMGA2, is increased and binds to the promoters of Oct4 and Sox2. The EpEX-mediated increases of Oct4 and Sox2 can promote osteogenesis of MSCs during osteo-induction. […]
After 14 days of osteogenic differentiation, cells were fixed with ice-cold 70% ethanol at −20° C. for 1 h and then washed with PBS. […] For quantification, the cells were incubated with 1 mL of […] buffer for 1 h to extract ARS, and the O.D. at 550 nm was recorded.

B1: EpEX: extracellular domain of human EpCAM, 265 amino acids in length (SEQ ID NO: 2) (protein, listed as Homo sapiens)
chain: MAPPQVLAFGLLLAAATATFAAAQEECVCENYKLAVNCFVNNNRQCQCTSVGAQNTVICSKLAAKCLVMKAEMNGSKLGRRAKPEGALQNNDGLYDPDCDESGLFKAKQCNGTSMCWCVNTAGVRRTDKDTEITCSERVRTYWIIIELKHKAREKPYDSKSLRTALQKEITTRYQLDPKFITSILYENNVITIDLVQNSSQKTQNDVDIADVAYYFEKDVKGESLFHSKKMDLTVNGEQLDLDPGQTLIYYVDEKAPEFSMQGLK
In the case of B1, the “protein expression of cell cycle regulators (cyclin A2, D1, D2, D3, E1, CDK4, CDK9)” value [1] is reported as “significantly increased”, the “protein expression of pluripotency markers (Oct4, Sox2, c-Myc, Lin28)” value [1] is reported as “significantly increased” and the “phosphorylation of EGFR at Tyr845” value (EGFR (Tyr845)) is reported as “induced EGFR phosphorylation at Tyr845 in a time-dependent manner; also recorded: can induce”. For the same molecule, the “osteogenesis compared to controls” value (MSCs; EpEX treatment during osteo-induction, 14 days, ARS staining) was 4 fold and the “calcium precipitation (ARS staining)” value (MSCs; EpEX, Day 14, vs non-treated controls) was “higher”.
